Key:
[1] = molecular target: T1, recombinant human DLL4 (C-terminally His-tagged extracellular domain, R&D Systems) (human, UniProt Q9NR61 25-522, biotinylated in the competition ELISA); assay: SPR (Biacore), recombinant human DLL4
T1 construct: also called rhDLL4; hDLL4
Method: Kinetic analysis to determine the affinity of the DII4-VHH interaction is performed by Surface Plasmon Resonance (SPR) on a Biacore T100 instrument. […] Purified VHHs or Fab fragment are injected for 2 minutes at different concentrations (between 10 and 300 nM) and allowed to dissociate for 20 min at a flow rate of 45 μl/min. Between sample injections, the surfaces are regenerated with 10 mM glycine pH1.5 and 100 mM HCl. HBS-N (Hepes buffer pH7.4) is used as running buffer. If possible, data are evaluated by fitting a 1:1 interaction model (Langmuir binding) onto the binding curves. The affinity constant KD is calculated from resulting association and dissociation rate constants (kₐ) and […].

[2] = molecular target: T2, human DLL4 expressed on cells (CHO-hDLL4; HEK293-hDLL4) (human, UniProt Q9NR61 27-685); assay: cell-based or functional assay
[3] = molecular target: T2, human DLL4 expressed on cells …; assay: competition FMAT, labelled hNotch1-Fc on CHO-hDLL4 cells
[4] = molecular target: T3, mouse DLL4, full length, overexpressed on CHO cells (mouse, UniProt Q9JI71 27-686); assay: FMAT, hNotch1-Fc on CHO-mDLL4, -HSA
T3 construct: whole, on cells; also called mDLL4; CHO-mDLL4

[5] = molecular target: T4, human DLL4, full length, overexpressed on cells (human, UniProt Q9NR61 27-685); assay: cell-based or functional assay
[6] = molecular target: VEGF (used to stimulate HUVEC cells) (UniProt P15692-4 27-191, limits assumed); assay: cell-based or functional assay
[7] = molecular target: T3, mouse DLL4, full length, overexpressed …; assay: FMAT, hNotch1-Fc on CHO-mDLL4, +25 uM HSA
[8] = molecular target: T5, recombinant human VEGF165 (human, UniProt P15692-4 27-191, biotinylated in the competition assays); assay: AlphaScreen, hVEGF165/hVEGFR1-Fc competition, -HSA
T5 construct: Bought protein; also called hVEGF165; rhVEGF165

[9] = molecular target: T4, human DLL4, full length, overexpressed …; assay: FMAT, hNotch1-Fc on CHO-hDLL4, +25 uM HSA
[10] = molecular target: T5, recombinant human VEGF165; assay: AlphaScreen, hVEGF165/hVEGFR2-Fc competition, +5 uM HSA
Method: These 2 competition assays are also performed after preincubation of the VHHs with 5 μM human serum albumin.

[11] = molecular target: T4, human DLL4, full length, overexpressed …; assay: FMAT, hNotch1-Fc on CHO-hDLL4, -HSA
[12] = molecular target: T5, recombinant human VEGF165; assay: AlphaScreen, hVEGF165/hVEGFR2-Fc competition, -HSA
[13] = molecular target: T5, recombinant human VEGF165; assay: ProteOn off-rate assay, periplasmic extract on coated hVEGF165
Method: One additional variant is constructed in which the potential oxidation site at position M30 (CDR1 region, see FIG. 38 indicated as bold italic residue) is removed by introduction of a M30I mutation. […] Off-rates are calculated and compared to the off-rates of the parental VEGFBII5B05.

Chain of VEGF (used to stimulate HUVEC cells) (P15692 other isoform, or with tags, fused parts or gaps limits assumed): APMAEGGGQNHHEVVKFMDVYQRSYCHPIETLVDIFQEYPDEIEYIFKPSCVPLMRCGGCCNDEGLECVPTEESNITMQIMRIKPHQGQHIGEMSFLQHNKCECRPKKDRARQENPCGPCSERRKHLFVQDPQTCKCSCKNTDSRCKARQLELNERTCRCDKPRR
T5 sequence (P15692 other isoform, or with tags, fused parts or gaps): as the sequence (P15692 other isoform, or with tags, fused parts or gaps limits assumed) above
T3 sequence (Q9JI71 27-686): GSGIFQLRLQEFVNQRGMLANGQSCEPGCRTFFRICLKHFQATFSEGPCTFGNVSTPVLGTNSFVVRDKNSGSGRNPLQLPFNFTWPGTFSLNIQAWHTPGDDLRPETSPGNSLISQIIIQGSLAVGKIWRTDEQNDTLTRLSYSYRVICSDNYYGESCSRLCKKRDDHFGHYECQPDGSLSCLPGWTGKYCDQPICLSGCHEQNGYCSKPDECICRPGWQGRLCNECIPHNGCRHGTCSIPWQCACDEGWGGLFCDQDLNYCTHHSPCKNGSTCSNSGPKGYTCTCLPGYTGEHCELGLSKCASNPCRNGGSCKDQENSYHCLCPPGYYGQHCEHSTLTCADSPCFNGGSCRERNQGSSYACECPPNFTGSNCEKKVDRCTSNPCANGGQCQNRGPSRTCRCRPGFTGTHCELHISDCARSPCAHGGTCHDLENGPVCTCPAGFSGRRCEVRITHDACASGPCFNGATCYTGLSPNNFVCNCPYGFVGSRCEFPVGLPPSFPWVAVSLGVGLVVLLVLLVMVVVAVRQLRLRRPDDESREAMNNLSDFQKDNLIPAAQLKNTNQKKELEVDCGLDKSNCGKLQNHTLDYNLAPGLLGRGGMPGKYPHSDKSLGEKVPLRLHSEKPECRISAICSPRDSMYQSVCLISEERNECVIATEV

Binder | % inh [4] [%] | IC50 [4] [nM] | IC50, DLL4 mediated reporter assay, +HSA [5] [nM] | % inhibition, VEGF HUVEC proliferation assay, -HSA [6] [%] | IC50, VEGF HUVEC proliferation assay, -HSA [6] [nM] | % inh [7] [%] | IC50 [7] [nM] | % inh [8] [%] | IC50 [8] [nM] | % inh [9] [%] | IC50 [9] [nM] | % inh [10] [%] | IC50 [10] [nM] | % inh [11] [%] | IC50 [11] [nM] | % inh [12] [%] | IC50 [12] [nM] | binding level (RU) [13] [RU] | koff [13] [s⁻¹] | other results
DLLBII017 (VHH, not shown: small tags and cut ends) VHH: EVQLVESGGGLVQPGGSLRLSCAASGRTFSSYAMAWYRQAPGKEREYVAAIRWSGGTAYYADSVQGRFTISRDNAKNTVYLQMNSLRPEDTAVYYCANRAPDTRLAPYEYDHWGQGTLVTVSS | – | – | – | – | – | – | – | – | – | – | – | – | – | – | – | – | – | – | – | Kd [1]: 0.2 nM; koff [1]: 8e-05 s⁻¹; kon [1]: 370000 M⁻¹ s⁻¹; IC50, DLL4-mediated reporter assay (hDLL4) [2]: 126 nM; IC50 [3]: 12.1 nM
VEGFBII120E10 (VHH, M30I variant of VEGFBII5B05; tested as periplasmic extract) VHH: EVQLVESGGGLVQPGGSLRLSCVASGIRFISMAWYRQAPGKHRELVARISSGGTTAYVDSVKGRFTISRDNSKNTVYLQMNSLKAEDTAVYYCNTFSSRPNPWGAGTQVTVSS | – | – | – | – | – | – | – | – | – | – | – | – | – | – | – | – | – | 257 | 0.0468 | –
VEGFDLLBII014 (bispecific antibody, PEGylated at the Cys at position 15 of the 35 Gly-Ser linker, VEGFBII23B04 - 9GS - VEGFBII5B05 - 35GS(Cys15) - DLLBII129B05) EVQLVESGGGLVQTGDSLRLSCEVSGRTFSSYSMGWFRQAQGKEREFVVAISKGGYKYDSVSLEGRFTISKDNAKNTVYLQINSLKPEDTAVYYCASSRAYGSSRLRLADTYEYWGQGTQVTVSSGGGGSGGGSEVQLVESGGGLVQPGGSLRLSCVASGIRFMSMAWYRQAPGKHRELVARISSGGTTAYVDSVKGRFTISRDNSKNTVYLQMNSLKAEDTAVYYCNTFSSRPNPWGAGTQVTVSSGGGGSGGGGSGGGGCGGGGSGGGGSGGGGSGGGGSEVQLVESGGGLVQAGGSLRLSCAASGRTFSSYAMAWYRQAPGKEREYVAAIRWSGGTAYYADSVQGRFTISRDNAKNTVYLQMNSLKPEDTAVYYCANRAPDTRLAPYEYDHWGQGTQVTVSS | 100 | 15.4 | 122 | 98 | 0.49 | 100 | 15.4 | 94 | 0.08 | 100 | 12.3 | 100 | 0.024 | 100 | 9.9 | 100 | 0.026 | – | – | –

More lines, main results first:

% inh [4] [%] | IC50 [4] [nM] | IC50, DLL4 mediated reporter assay, +HSA [5] [nM] | % inhibition, VEGF HUVEC proliferation assay, -HSA [6] [%] | IC50, VEGF HUVEC proliferation assay, -HSA [6] [nM] | % inh [7] [%] | IC50 [7] [nM] | % inh [8] [%] | IC50 [8] [nM] | % inh [9] [%] | IC50 [9] [nM] | % inh [10] [%] | IC50 [10] [nM] | % inh [11] [%] | IC50 [11] [nM] | % inh [12] [%] | IC50 [12] [nM] | binding level (RU) [13] [RU] | koff [13] [s⁻¹] | Binder | other results
100 | 12.2 | 134 | 109 | 0.49 | 100 | 11.2 | 96 | 0.04 | 100 | 10 | 100 | 0.015 | 100 | 9.5 | 100 | 0.016 | – | – | VEGFDLLBII015 (bispecific antibody, PEGylated at the Cys at position 15 of the 35 Gly-Ser linker, VEGFBII23B04 - 35GS(Cys15) - VEGFBII5B05 - 35GS - DLLBII129B05) EVQLVESGGGLVQTGDSLRLSCEVSGRTFSSYSMGWFRQAQGKEREFVVAISKGGYKYDSVSLEGRFTISKDNAKNTVYLQINSLKPEDTAVYYCASSRAYGSSRLRLADTYEYWGQGTQVTVSSGGGGSGGGGSGGGGCGGGGSGGGGSGGGGSGGGGSEVQLVESGGGLVQPGGSLRLSCVASGIRFMSMAWYRQAPGKHRELVARISSGGTTAYVDSVKGRFTISRDNSKNTVYLQMNSLKAEDTAVYYCNTFSSRPNPWGAGTQVTVSSGGGGSGGGGSGGGGSGGGGSGGGGSGGGGSGGGGSEVQLVESGGGLVQAGGSLRLSCAASGRTFSSYAMAWYRQAPGKEREYVAAIRWSGGTAYYADSVQGRFTISRDNAKNTVYLQMNSLKPEDTAVYYCANRAPDTRLAPYEYDHWGQGTQVTVSS | –
– | – | – | – | – | – | – | – | – | – | – | – | – | – | – | – | – | 234 | 0.0775 | VEGFBII119G11 (VHH, Humanization variant of VEGFBII5B05; tested as periplasmic extract) VHH: EVQLVESGGGLVQPGGSLRLSCAASGIRFMSMAWYRQAPGKQRELVARISSGGTTAYADSVKGRFTISRDNSKNTVYLQMNSLRAEDTAVYYCNTFSSRPNPWGQGTLVTVSS | –
